# Laboratory results: publication doi:10.1101/2022.01.11.475891, “Structural insights as to how iron-loaded siderophores are imported into Mycobacterium tuberculosis by IrtAB” (bioRxiv, 2022)
# T1: IrtA, full length (subunit of full-length Mtb IrtAB) (M. tuberculosis H37Rv, UniProt P9WQJ9 1-859)
# T1 construct: also called Rv1348
# T1 sequence: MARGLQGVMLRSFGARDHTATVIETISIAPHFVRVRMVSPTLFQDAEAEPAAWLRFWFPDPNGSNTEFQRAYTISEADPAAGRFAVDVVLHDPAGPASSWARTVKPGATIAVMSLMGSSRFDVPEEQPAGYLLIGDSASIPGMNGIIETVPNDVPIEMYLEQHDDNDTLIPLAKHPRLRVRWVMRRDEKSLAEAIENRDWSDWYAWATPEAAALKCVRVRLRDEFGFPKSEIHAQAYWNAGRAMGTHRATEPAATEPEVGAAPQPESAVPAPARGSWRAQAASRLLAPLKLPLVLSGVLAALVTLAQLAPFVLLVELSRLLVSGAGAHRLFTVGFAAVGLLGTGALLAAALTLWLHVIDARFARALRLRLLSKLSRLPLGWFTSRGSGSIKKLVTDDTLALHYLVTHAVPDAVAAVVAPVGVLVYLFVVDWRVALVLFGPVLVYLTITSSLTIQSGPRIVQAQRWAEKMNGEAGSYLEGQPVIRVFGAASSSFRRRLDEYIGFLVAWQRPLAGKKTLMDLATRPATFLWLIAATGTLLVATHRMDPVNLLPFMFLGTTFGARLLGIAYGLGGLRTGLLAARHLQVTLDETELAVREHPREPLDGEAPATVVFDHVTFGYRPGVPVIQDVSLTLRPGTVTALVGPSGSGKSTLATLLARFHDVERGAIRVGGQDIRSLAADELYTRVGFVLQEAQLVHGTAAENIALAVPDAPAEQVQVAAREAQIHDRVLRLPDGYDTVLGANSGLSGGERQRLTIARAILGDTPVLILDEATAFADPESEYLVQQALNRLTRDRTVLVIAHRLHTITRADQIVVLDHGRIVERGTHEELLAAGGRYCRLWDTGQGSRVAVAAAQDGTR
# B1: IrtB with a C-terminal 10x His tag (subunit of Mtb IrtAB) (natural protein)
# chain: MIRTWIALVPNDHRARLIGFALLAFCSVVARAVGTVLLVPLMAALFGEAPQRAWLWLGWLSAATVAGWVLDAVTARIGIELGFAVLNHTQHDVADRLPVVRLDWFTAENTATARQAIAATGPELVGLVVNLVTPLTSAILLPAVIALALLPISWQLGVAALAGVPLLLGALWASAAFARRADTAADKANTALTERIIEFARTQQALRAARRVEPARSLVGNALASQHTATMRLLGMQIPGQLLFSIASQLALIVLAGTTAALTITGTLTVPEAIALIVVMVRYLEPFTAVSELAPALESTRATLGRIGSVLTAPVMVAGSGTWRDGAVVPRIEFDDVAFGYDGGSGPVLDGVSFCLQPGTTTAIVGPSGCGKSTILALIAGLHQPTRGRVLIDGTDVATLDARAQQAVCSVVFQHPYLFHGTIRDNVFAADPGASDDQFAQAVRLARVDELIARLPDGANTIVGEAGSALSGGERQRVSIARALLKAAPVLLVDEATSALDAENEAAVVDALAADPRSRTRVIVAHRLASIRHADRVLFVDDGRVVEDGSISELLTAGGRFSQFWRQQHEAAEWQILAE
# notes: IrtB (Rv1349) of Mycobacterium tuberculosis H37Rv, TMD and NBD; The same IrtB chain stands in full-length IrtAB and in IrtAB(ΔSID); also called Rv1349
# Molecular target: T1, IrtA, full length (subunit of …)
# Assay: cryo-EM structure; full-length IrtAB in digitonin, no nucleotide added; 20 mM MES, 150 mM NaCl, pH 6.5; inward-facing
# Conditions: both partners purified
binder,measurement,value
B1,binding result,binds
